The text below walks through data of paper PMC7077502.

The target in this series is His6-eIF4A1 (UniProt P60843 1-406). In words: fluorescence polarization. (In general: In fluorescence polarisation assays a small probe gives low polarisation when free and higher when bound to something large.)
Chain of His6-eIF4A1 (P60843 whole entry): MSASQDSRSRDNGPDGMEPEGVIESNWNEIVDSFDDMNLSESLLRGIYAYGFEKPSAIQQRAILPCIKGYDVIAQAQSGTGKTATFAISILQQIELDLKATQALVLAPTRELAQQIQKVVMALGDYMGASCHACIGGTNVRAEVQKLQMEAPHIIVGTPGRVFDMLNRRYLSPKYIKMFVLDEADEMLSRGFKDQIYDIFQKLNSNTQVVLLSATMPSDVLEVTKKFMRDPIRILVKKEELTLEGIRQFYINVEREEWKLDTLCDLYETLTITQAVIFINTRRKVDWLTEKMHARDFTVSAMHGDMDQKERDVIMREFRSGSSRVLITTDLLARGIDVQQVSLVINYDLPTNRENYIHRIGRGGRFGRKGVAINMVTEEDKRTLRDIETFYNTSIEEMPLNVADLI

With AGAGAGAGAGAGAGAG (ssRNA) [r(AG)8], the binding result was “binds”.
